Data from publication PMC4094107 (Nature structural & molecular biology, 2010).
Read-outs that look alike come from different tables or passages of the source.

T1: Human RAD51 (purified) (human, UniProt Q06609 1-339)
T1 sequence (looked up): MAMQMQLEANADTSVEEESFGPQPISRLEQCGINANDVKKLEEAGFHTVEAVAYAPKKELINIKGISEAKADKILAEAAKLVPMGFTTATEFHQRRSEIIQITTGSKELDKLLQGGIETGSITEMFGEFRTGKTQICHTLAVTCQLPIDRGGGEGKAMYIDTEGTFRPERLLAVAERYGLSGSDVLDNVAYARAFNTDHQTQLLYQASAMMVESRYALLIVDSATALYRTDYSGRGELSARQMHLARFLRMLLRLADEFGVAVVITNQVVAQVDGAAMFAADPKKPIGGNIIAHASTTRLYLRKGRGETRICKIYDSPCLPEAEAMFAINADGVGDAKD

T2: PALB2 (purified from baculovirus-infected Sf9 cells as GST-PALB2-His) (human, UniProt Q86YC2 1-1186)
T2 sequence (looked up): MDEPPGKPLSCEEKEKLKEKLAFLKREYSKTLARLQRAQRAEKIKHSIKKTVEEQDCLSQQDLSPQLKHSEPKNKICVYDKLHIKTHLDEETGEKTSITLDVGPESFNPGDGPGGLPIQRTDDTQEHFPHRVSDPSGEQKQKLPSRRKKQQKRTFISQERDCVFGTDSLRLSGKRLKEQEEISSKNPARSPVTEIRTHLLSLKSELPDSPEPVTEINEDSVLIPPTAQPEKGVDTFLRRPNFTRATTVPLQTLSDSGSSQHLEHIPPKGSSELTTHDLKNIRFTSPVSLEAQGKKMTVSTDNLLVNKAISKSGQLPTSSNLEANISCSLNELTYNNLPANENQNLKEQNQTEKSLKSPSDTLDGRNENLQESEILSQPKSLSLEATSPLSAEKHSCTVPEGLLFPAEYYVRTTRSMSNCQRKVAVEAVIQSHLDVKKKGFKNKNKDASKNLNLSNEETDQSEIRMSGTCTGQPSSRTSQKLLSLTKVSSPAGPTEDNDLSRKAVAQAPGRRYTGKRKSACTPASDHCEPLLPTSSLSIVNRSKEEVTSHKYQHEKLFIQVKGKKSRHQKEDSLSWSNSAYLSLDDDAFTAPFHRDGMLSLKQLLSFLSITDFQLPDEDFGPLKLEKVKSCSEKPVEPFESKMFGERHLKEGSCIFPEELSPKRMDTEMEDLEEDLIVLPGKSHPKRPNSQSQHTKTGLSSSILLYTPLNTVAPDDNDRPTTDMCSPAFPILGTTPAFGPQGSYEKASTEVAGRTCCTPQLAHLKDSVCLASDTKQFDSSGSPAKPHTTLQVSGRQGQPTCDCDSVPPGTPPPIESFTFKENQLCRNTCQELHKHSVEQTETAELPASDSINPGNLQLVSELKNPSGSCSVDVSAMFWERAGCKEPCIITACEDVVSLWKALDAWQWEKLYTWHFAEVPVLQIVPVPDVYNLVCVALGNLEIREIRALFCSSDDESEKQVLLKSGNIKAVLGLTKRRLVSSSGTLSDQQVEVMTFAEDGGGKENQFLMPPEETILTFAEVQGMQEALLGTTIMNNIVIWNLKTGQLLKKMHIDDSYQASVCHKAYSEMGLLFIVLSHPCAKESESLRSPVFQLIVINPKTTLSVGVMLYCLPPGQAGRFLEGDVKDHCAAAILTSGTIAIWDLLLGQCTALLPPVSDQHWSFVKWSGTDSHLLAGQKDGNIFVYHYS

B1: GST-PALB2 truncation 5 (P2T5, amino acids 853-1186) (domain or fragment, human, UniProt Q86YC2 853-1186, looked up)
chain: GNLQLVSELKNPSGSCSVDVSAMFWERAGCKEPCIITACEDVVSLWKALDAWQWEKLYTWHFAEVPVLQIVPVPDVYNLVCVALGNLEIREIRALFCSSDDESEKQVLLKSGNIKAVLGLTKRRLVSSSGTLSDQQVEVMTFAEDGGGKENQFLMPPEETILTFAEVQGMQEALLGTTIMNNIVIWNLKTGQLLKKMHIDDSYQASVCHKAYSEMGLLFIVLSHPCAKESESLRSPVFQLIVINPKTTLSVGVMLYCLPPGQAGRFLEGDVKDHCAAAILTSGTIAIWDLLLGQCTALLPPVSDQHWSFVKWSGTDSHLLAGQKDGNIFVYHYS
B2: GST-PALB2 truncation 1 (P2T1, amino acids 1-200) (domain or fragment, human, UniProt Q86YC2 1-200, looked up)
chain: MDEPPGKPLSCEEKEKLKEKLAFLKREYSKTLARLQRAQRAEKIKHSIKKTVEEQDCLSQQDLSPQLKHSEPKNKICVYDKLHIKTHLDEETGEKTSITLDVGPESFNPGDGPGGLPIQRTDDTQEHFPHRVSDPSGEQKQKLPSRRKKQQKRTFISQERDCVFGTDSLRLSGKRLKEQEEISSKNPARSPVTEIRTHLL
B3: GST-RAD51 truncation 3 (R51T3, amino acids 184-257) (domain or fragment, human, UniProt Q06609 184-257, looked up)
chain: DVLDNVAYARAFNTDHQTQLLYQASAMMVESRYALLIVDSATALYRTDYSGRGELSARQMHLARFLRMLLRLAD
B4: BRC3/4-GST polypeptide (BRC3 and BRC4 region of BRCA2, amino acids 1409-1596) (domain or fragment, human, UniProt P51587 1409-1596, looked up)
chain: LTATKTEQNIKDFETSDTFFQTASGKNISVAKESFNKIVNFFDQKPEELHNFSLNSELHSDIRKNKMDILSYEETDIVKHKILKESVPVGTGNQLVTFQGQPERDEKIKEPTLLGFHTASGKKVKIAKESLDKVKNLFDEKEQGTSEITSFSHQWAKTLKYREACKDLELACETIEITAAPKCKEMQN

Experiments:
[1] = molecular target: T1, Human RAD51 (purified); experiment: pull-down
[2] = molecular target: B2; experiment: co-IP
[3] = molecular target: B1; experiment: co-IP
[4] = molecular target: T2, PALB2 (purified from …); experiment: co-IP
[5] = molecular target: T2, PALB2 (purified from …); experiment: co-IP; remark: listed apart in the source

Binder: B1
binding result [1]: binds

Binder: B2
binding result [1]: binds

Binder: B3
binding result [2]: binds
binding result [3]: binds
binding result [4]: binds

Binder: B4
binding result [5]: binds
